Results: doi:10.1101/2020.12.02.408906 (bioRxiv, 2020)

B1: EccD5 of the ESX-5 type VII secretion system of M. tuberculosis H37Rv (natural protein)
chain: MTAVADAPQADIEGVASPQAVVVGVMAGEGVQIGVLLDANAPVSVMTDPLLKVVNSRLRELGEAPLEATGRGRWALCLVDGAPLRATQSLTEQDVYDGDRLWIRFIADTERRSQVIEHISTAVASDLSKRFARIDPIVAVQVGASMVATGVVLATGVLGWWRWHHNTWLTTIYTAVIGVLVLAVAMLLLMRAKTDADRRVADIMLMSAIMPVTVAAAAAPPGPVGSPQAVLGFGVLTVAAALALRFTGRRLGIYTTIVIIGALTMLAALARMVAATSAVTLLSSLLLICVVAYHAAPALSRRLAGIRLPVFPSATSRWVFEARPDLPTTVVVSGGSAPVLEGPSSVRDVLLQAERARSFLSGLLTGLGVMVVVCMTSLCDPHTGQRWLPLILAGFTSGFLLLRGRSYVDRWQSITLAGTAVIIAAAVCVRYALELSSPLAVSIVAAILVLLPAAGMAAAAHVPHTIYSPLFRKFVEWIEYLCLMPIFPLALWLMNVYAAIRYR
B2: MycP5 protease (mycosin) of the ESX-5 type VII secretion system of M. tuberculosis H37Rv (enzyme)
chain: ISPPTIDPGALPPDGPPGPLAPMKQNAYCTEVGVLPGTDFQLQPKYMEMLNLNEAWQFGRGDGVKVAVIDTGVTPHPRLPRLIPGGDYVMAGGDGLSDCDAHGTLVASMIAAVPANGAVPLPSVPRRPVTIPTTETPPPPQTVTLSPVPPQTVTVIPAPPPEEGVPPGAPVPGPEPPPAPGPQPPAVDRGGGTVTVPSYSGGRKIAPIDNPRNPHPSAPSPALGPPPDAFSGIAPGVEIISIRQSSQAFGLKDPYTGDEDPQTAQKIDNVETMARAIVHAANMGASVINISDVMCMSARNVIDQRALGAAVHYAAVDKDAVIVAAAGDGSKKDCKQNPIFDPLQPDDPRAWNAVTTVVTPSWFHDYVLTVGAVDANGQPLSKMSIAGPWVSISAPGTDVVGLSPRDDGLINAIDGPDNSLLVPAGTSFSAAIVSGVAALVRAKFPELSAYQIINRLIHTARPPARGVDNQVGYGVVDPVAALTWDVPKGPAEPPKQLSAPLVVPQPPAPRDMVPIWVAAGGLAGALLIGGAVFGTATLMRRSRKQQ
B3: EccB5 of the ESX-5 type VII secretion system of M. tuberculosis H37Rv (natural protein)
chain: MAEESRGQRGSGYGLGLSTRTQVTGYQFLARRTAMALTRWRVRMEIEPGRRQTLAVVASVSAALVICLGALLWSFISPSGQLNESPIIADRDSGALYVRVGDRLYPALNLASARLITGRPDNPHLVRSSQIATMPRGPLVGIPGAPSSFSPKSPPASSWLVCDTVATSSSIGSLQGVTVTVIDGTPDLTGHRQILSGSDAVVLRYGGDAWVIREGRRSRIEPTNRAVLLPLGLTPEQVSQARPMSRALFDALPVGPELLVPEVPNAGGPATFPGAPGPIGTVIVTPQISGPQQYSLVLGDGVQTLPPLVAQILQNAGSAGNTKPLTVEPSTLAKMPVVNRLDLSAYPDNPLEVVDIREHPSTCWWWERTAGENRARVRVVSGPTIPVAATEMNKVVSLVKADTSGRQADQVYFGPDHANFVAVTGNNPGAQTSESLWWVTDAGARFGVEDSKEARDALGLTLTPSLAPWVALRLLPQGPTLSRADALVEHDTLPMDMTPAELVVPK
B4: EccC5 ATPase of the ESX-5 type VII secretion system of M. tuberculosis H37Rv (natural protein)
chain: MKRGFARPTPEKPPVIKPENIVLSTPLSIPPPEGKPWWLIVVGVVVVGLLGGMVAMVFASGSHVFGGIGSIFPLFMMVGIMMMMFRGMGGGQQQMSRPKLDAMRAQFMLMLDMLRETAQESADSMDANYRWFHPAPNTLAAAVGSPRMWERKPDGKDLNFGVVRVGVGMTRPEVTWGEPQNMPTDIELEPVTGKALQEFGRYQSVVYNLPKMVSLLVEPWYALVGEREQVLGLMRAIICQLAFSHGPDHVQMIVVSSDLDQWDWVKWLPHFGDSRRHDAAGNARMVYTSVREFAAEQAELFAGRGSFTPRHASSSAQTPTPHTVIIADVDDPQWEYVISAEGVDGVTFFDLTGSSMWTDIPERKLQFDKTGVIEALPRDRDTWMVIDDKAWFFALTDQVSIAEAEEFAQKLAQWRLAEAYEEIGQRVAHIGARDILSYYGIDDPGNIDFDSLWASRTDTMGRSRLRAPFGNRSDNGELLFLDMKSLDEGGDGPHGVMSGTTGSGKSTLVRTVIESLMLSHPPEELQFVLADLKGGSAVKPFAGVPHVSRIITDLEEDQALMERFLDALWGEIARRKAICDSAGVDDAKEYNSVRARMRARGQDMAPLPMLVVVIDEFYEWFRIMPTAVDVLDSIGRQGRAYWIHLMMASQTIESRAEKLMENMGYRLVLKARTAGAAQAAGVPNAVNLPAQAGLGYFRKSLEDIIRFQAEFLWRDYFQPGVSIDGEEAPALVHSIDYIRPQLFTNSFTPLEVSVGGPDIEPVVAQPNGEVLESDDIEGGEDEDEEGVRTPKVGTVIIDQLRKIKFEPYRLWQPPLTQPVAIDDLVNRFLGRPWHKEYGSACNLVFPIGIIDRPYKHDQPPWTVDTSGPGANVLILGAGGSGKTTALQTLICSAALTHTPQQVQFYCLAYSSTALTTVSRIPHVGEVAGPTDPYGVRRTVAELLALVRERKRSFLECGIASMEMFRRRKFGGEAGPVPDDGFGDVYLVIDNYRALAEENEVLIEQVNVIINQGPSFGVHVVVTADRESELRPPVRSGFGSRIELRLAAVEDAKLVRSRFAKDVPVKPGRGMVAVNYVRLDSDPQAGLHTLVARPALGSTPDNVFECDSVVAAVSRLTSAQAPPVRRLPARFGVEQVRELASRDTRQGVGAGGIAWAISELDLAPVYLNFAENSHLMVTGRRECGRTTTLATIMSEIGRLYAPGASSAPPPAPGRPSAQVWLVDPRRQLLTALGSDYVERFAYNLDGVVAMMGELAAALAGREPPPGLSAEELLSRSWWSGPEIFLIVDDIQQLPPGFDSPLHKAVPFVNRAADVGLHVIVTRTFGGWSSAGSDPMLRALHQANAPLLVMDADPDEGFIRGKMKGGPLPRGRGLLMAEDTGVFVQVAATEVRR

Biological target: the molecule itself
Assay: cryo-EM structure

Q: Which “stoichiometry N” value does the source give for B1 here?
A: 2

Q: How did the “stoichiometry N” value turn out when B2 was run?
A: 3

Q: With B3 as the protein, how does the “stoichiometry N” value read?
A: 6

Q: For B4, which “stoichiometry N” value is on record?
A: 2
